Experimental data from patent US20090281024A1 (RAPTOR PHARMACEUTICALS, published 2009).

What was measured:
[1] = molecular target: T1, LRP1 CR3-5 (human); experiment: solid-phase assay, coated CR protein (same value as Table 1)
T1 construct: range 852-973; also called L1 CR3-5; LRP1 CR3-S [sic]

[2] = molecular target: T2, LRP2 CR89 V1047D (human, UniProt P98164 1022-1105); experiment: solid-phase assay, coated CR protein
T2 construct: also called YDWR; not shown: N-terminal hexahistidine and S-peptide tag stretch of pET30(+)a
T2 chain: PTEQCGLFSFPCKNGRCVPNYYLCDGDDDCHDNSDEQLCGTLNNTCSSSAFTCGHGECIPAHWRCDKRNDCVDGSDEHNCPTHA
Method: (§1) Wells were washed with TBSTC and bound ligands detected with polyclonal anti-RAP (BP41/42, 1:1,000, BioMarin). Excess primary antibody was removed and wells washed before incubation with the secondary antibody, HRP-conjugated goat anti rabbit IgG (Bio-Rad). After washing, TMB substrate solutions (Bio-Rad) were added to detect HRP. Color development was stopped with 1N HCl. Absorption at 450 nm was measured with a microplate spectrophotometer (Molecular Devices). Data were plotted and Kd values derived by non-linear regression with the assumption of single-site binding (GraphPad Prism).
(§2) One premise of this work was that amino acids at A, C, A′ and C′ within the calcium-binding loops of a CR pair were key determinants of binding affinity for RAP and would be similarly important for binding of RAP variants. To test this idea, mutant LRP2 CR89 were prepared in which the native, non-canonical residues at these positions were sequentially substituted with the non-native, canonical residues. As defined above, the A, C, A′, C′ string for LRP2 CR89 is YVWR. Mutants included LRP2 CR89Y1042W (WVWR), LRP2 CR89V1047D (YDWR), LRP2 CR89R1088D (YVWD), LRP2 CR89V1047D R1088D (YDWD), LRP2 CR89 Y1042W V1047D R1088D (WDWD), LRP2 CR89Y1042W V1047D (WDWR), LRP2 CR89Y1042W R1088D (WVWD). Binding to both RAP d3 and MegaRAP1 d3 were measured for each LRP2 CR89 mutant by solid-phase assay. […] The A′ position in LRP2 CR89 is a tryptophan, the canonical residue for wild-type RAP d3 binding, and was not mutated in our studies. […] We did see a small increase in binding of RAP d3 to the WVWD and WDWD combinations at A, C, A′ and C′.

[3] = molecular target: T3, LRP2 CR89 V1047D R1088D (human, UniProt P98164 1022-1105); experiment: solid-phase assay, coated CR protein
T3 construct: also called YDWD; not shown: N-terminal hexahistidine and S-peptide tag stretch of pET30(+)a
T3 chain: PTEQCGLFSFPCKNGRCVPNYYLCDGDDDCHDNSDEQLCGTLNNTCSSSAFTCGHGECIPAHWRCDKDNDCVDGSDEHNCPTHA
Method: as §1, §2

[4] = molecular target: T4, LRP2 CR89 Y1042W R1088D (human, UniProt P98164 1022-1105); experiment: solid-phase assay, coated CR protein
T4 construct: also called WVWD; not shown: N-terminal hexahistidine and S-peptide tag stretch of pET30(+)a
T4 chain: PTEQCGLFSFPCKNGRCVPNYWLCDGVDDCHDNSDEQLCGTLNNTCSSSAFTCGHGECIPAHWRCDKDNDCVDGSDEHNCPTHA
Method: as §1, §2

[5] = molecular target: T1, LRP1 CR3-5; experiment: solid-phase assay, coated CR protein
Method: as §1
Next, the binding of RAP d3 and MegaRAP1 d3 proteins to LRP1 CR3-5 and LRP2 CR89 was assessed. […] In all cases, 10 mM EGTA prevented binding of both RAP d3 and MegaRAP1 d3 to CR proteins. Since calcium was the only divalent metal ion present in the binding buffer, this observation is consistent with both RAP d3 and MegaRAP1 d3 binding to calcium-loaded CR pairs. […] Therefore, wild-type RAP d3 and MegaRAP1 d3 have inverted binding preferences for these two receptor fragments.

[6] = molecular target: T1, LRP1 CR3-5; experiment: solid-phase assay, coated CR protein (FIG. 4)
Method: Solid phase binding assays—Purified, refolded CR protein (1 μg) was bound to Nunc Maxisorp™ 96-well plates in TBS pH 8 supplemented with 5 mM CaCl₂ (TBSC) overnight at 4° C. Wells were washed with TBSC and then blocked with TBSC containing 2% bovine serum albumin (BSA). RAP ligands were then incubated with the immobilized receptor at a range of concentrations for 2 hours in the above blocking buffer supplemented with 0.05% Tween-20 at room temperature. Control wells contained no added ligand. As an additional control, to determine whether the absence of calcium affected binding, 10 mM EGTA was included in the incubation medium for some samples. Wells were washed with TBSTC and bound ligands detected with polyclonal anti-RAP (BP41/42, 1:1,000, BioMarin). Excess primary antibody was removed and wells washed before incubation with the secondary antibody, HRP-conjugated goat anti rabbit IgG (Bio-Rad). After washing, TMB substrate solutions (Bio-Rad) were added to detect HRP. Color development was stopped with 1N HCl. Absorption at 450 nm was measured with a microplate spectrophotometer (Molecular Devices). […]
The binding of wild-type RAP d3 to each CR pair or set of overlapping pairs was then measured by solid-phase assay (FIG. 4). […] Binding of RAP d3 to MAT CR12 and CR34, measured in a separate set of experiments, was also undetectable. […]

[7] = molecular target: T5, MegaRAP1 d3 (human, UniProt P30533 235-353); experiment: solid-phase assay, coated CR protein
T5 construct: range 201-319 (mature RAP numbering); d3 of the variant selected on LRP2 CR89; also called RAPv2A d3; RAP v2A; not shown: N-terminal hexahistidine and S-peptide tags of pET30(+)a
T5 sequence (looked up): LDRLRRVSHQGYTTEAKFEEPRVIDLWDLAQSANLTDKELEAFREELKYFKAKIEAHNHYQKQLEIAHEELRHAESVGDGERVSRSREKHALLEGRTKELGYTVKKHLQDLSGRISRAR
Method: as §1, §2

[8] = molecular target: T6, GFRα-1; experiment: solid phase assay, RAP-GDNF concentration varied, OD 450 nm
T6 construct: Bought reagent; construct not described; also called soluble GFRα-1

[9] = molecular target: T6, GFRα-1; experiment: solid-phase assay, coated RAP-GDNF, serial dilutions of GFRα-1 (FIG. 12)
Method: Solid-phase binding assays—Microtiter plates were coated with GDNF or RAP-GDNF in 50 mM sodium carbonate, pH 9.6. The plates were then blocked for 1 hour at room temperature with blocking buffer (Promega) and incubated with serial dilutions of GFRα-1 (0-10 nM) in the presence or the absence of 1 μM RET (2 hours, ambient temperature). Complexes were identified by probing with an anti-GDNF monoclonal antibody (B8, Santa Cruz Biotechriology) and then with anti-mouse […] (Bio-Rad). After adding TMB solution (Bio-Rad), the color development was stopped with HCl and the OD 450 nm was measured using a plate reader. Between steps, the plates were washed three times with DPBS containing 0.1% Tween 20. This method provides a method for quantitating the affinity of RAP-GDNF for GFRα.

T1 sequence (Q07954 852-973): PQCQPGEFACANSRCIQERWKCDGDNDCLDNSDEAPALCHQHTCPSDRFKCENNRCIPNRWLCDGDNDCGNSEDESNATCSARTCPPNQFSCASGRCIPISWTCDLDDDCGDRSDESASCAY

B1: RAP d3 (wild-type third domain of the receptor-associated protein) (ligand, human, UniProt P30533 235-353, looked up)
chain: LDRLRRVSHQGYSTEAEFEEPRVIDLWDLAQSANLTDKELEAFREELKHFEAKIEKHNHYQKQLEIAHEKLRHAESVGDGERVSRSREKHALLEGRTKELGYTVKKHLQDLSGRISRAR
notes: range 201-319 (mature RAP numbering); Expressed in E. coli from pET30(+)a; also called wild-type RAP d3; not shown: N-terminal hexahistidine and S-peptide tags of pET30(+)a
With B1 the Kd [1] was 16 nM, the “% max bind” value [2] was 6% and the “% max bind” value [3] was 6%. For the same binder, the “% max bind” value [4] was 16%, the “% max binding” value [5] was 76% and the Kd [5] was 16 nM. For the same binder, the Kd [6] was 11 nM.

B2: LRP2 CR89 R1088D (receptor)
chain: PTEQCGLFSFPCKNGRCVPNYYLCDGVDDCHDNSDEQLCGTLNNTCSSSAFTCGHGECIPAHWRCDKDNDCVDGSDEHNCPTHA
notes: also called YVWD; not shown: N-terminal hexahistidine and S-peptide tag stretch of pET30(+)a
B2 was tested, and the Kd [7] was 78 nM.

B3: RAP-GDNF fusion protein (ligand, UniProt P30533 35-353, looked up)
chain: YSREKNQPKPSPKRESGEEFRMEKLNQLWEKAQRLHLPPVRLAELHADLKIQERDELAWKKLKLDGLDEDGEKEARLIRNLNVILAKYGLDGKKDARQVTSNSLSGTQEDGLDDPRLEKLWHKAKTSGKFSGEELDKLWREFLHHKEKVHEYNVLLETLSRTEEIHENVISPSDLSDIKGSVLHSRHTELKEKLRSINQGLDRLRRVSHQGYSTEAEFEEPRVIDLWDLAQSANLTDKELEAFREELKHFEAKIEKHNHYQKQLEIAHEKLRHAESVGDGERVSRSREKHALLEGRTKELGYTVKKHLQDLSGRISRARSPDKQMAVLPRRERNRQAAAANPENSRGKGRRGQRGKNRGCVLTAIHLNVTDLGLGYETKEELIFRYCSGSCDAAETTYDKILKNLSRNRRLVSDKVGQACCRPIAFDDDLSFLDDNLVYHILRKHSAKRCGCI
notes: Secreted from CHO cells as a disulfide-linked homodimer of about 120 kD
With B3 the “EC50 (read off the curve)” value [8] was roughly 2 ng/mL and the Kd [9] was roughly 5 ng/mL.
